Laboratory results published in patent US20130267025A1.

Columns and labels:
[1] = biological target: endogenous Tctex-1 protein of PC3 human prostate cancer cells (human) (UniProt P63172); test: cell-based or functional assay
[2] = biological target: V5-tagged Tctex-1 (V5-Tctex-1 fusion protein), expressed from pcDNA3.2/V5/GW/D-TOPO (human) (UniProt P63172); test: cell-based or functional assay
Sequence of V5-tagged Tctex-1 (V5-Tctex-1 fusion protein), expressed from pcDNA3.2/V5/GW/D-TOPO (human) (P63172 whole entry, the tested form may be a part): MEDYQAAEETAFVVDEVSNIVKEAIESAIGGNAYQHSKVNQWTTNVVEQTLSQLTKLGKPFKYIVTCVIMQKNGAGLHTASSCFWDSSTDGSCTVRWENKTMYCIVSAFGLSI

Sequence of endogenous Tctex-1 protein of PC3 human prostate cancer cells (human) (P63172 whole entry, the tested form may be a part): as above

## REIC/Dkk-3 protein overexpressed from adenovirus REIC/Dkk-3 (Ad-REIC) in PC3 cells (from UniProt Q9UBP4 22-350)
[1]
  apoptosis incidence (Hoechst 33342) in PC3 cells treated with Ad-REIC, group treated with shRNA-Tctex-1: 15%
  apoptosis incidence (Hoechst 33342) in PC3 cells treated with Ad-REIC, group treated with the GFP plasmid: 30%
[2]
  apoptosis incidence (Hoechst 33342) in PC3 cells treated with Ad-REIC, group treated with the Tctex-1 expression plasmid: 75%
